Measured values as given in patent US20140213531A1 (POLYPHOR, published 2014).
Bridges are numbered along the chain shown (N, C = ends). [ ]: non-standard residue; d: D form. AlloThr = allo threonine

Tests used:
Assay in all cases: cell-based or functional assay
[1] = target: Thrombin, from Human Plasma, high activity (human, UniProt P00734 328-622)
[2] = target: Chymotrypsin, from human pancreas (human, UniProt P17538 19-263)
[3] = target: Urokinase from human urine (human, UniProt P00749 21-431, limits assumed)
[4] = target: T1, Elastase from human neutrophils (human, UniProt P08246 30-247, limits assumed)
T1 sequence (looked up): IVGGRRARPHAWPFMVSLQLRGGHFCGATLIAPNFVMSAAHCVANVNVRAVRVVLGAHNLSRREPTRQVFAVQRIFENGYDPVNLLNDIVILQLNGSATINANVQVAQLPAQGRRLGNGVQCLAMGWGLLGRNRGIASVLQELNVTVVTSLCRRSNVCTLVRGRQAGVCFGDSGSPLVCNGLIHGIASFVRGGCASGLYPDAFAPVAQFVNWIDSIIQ

[5] = target: Coagulation Factor Xa, from human plasma (human, UniProt P00742 41-488, limits assumed)
Sequence of Coagulation Factor Xa, from human plasma (P00742 41-488 limits assumed): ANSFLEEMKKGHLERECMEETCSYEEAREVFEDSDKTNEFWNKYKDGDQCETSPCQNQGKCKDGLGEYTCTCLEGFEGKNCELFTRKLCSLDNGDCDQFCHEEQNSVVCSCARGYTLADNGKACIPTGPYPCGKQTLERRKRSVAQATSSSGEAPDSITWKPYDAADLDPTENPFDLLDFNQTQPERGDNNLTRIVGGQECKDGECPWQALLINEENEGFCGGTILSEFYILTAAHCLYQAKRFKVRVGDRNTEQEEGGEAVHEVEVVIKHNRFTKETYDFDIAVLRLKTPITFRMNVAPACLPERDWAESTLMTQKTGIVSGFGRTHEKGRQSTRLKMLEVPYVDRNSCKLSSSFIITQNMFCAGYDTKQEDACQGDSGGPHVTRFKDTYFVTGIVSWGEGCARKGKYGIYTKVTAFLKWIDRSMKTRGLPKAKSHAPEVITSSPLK

Chymase, from human skin = target: T2, Chymase, from human skin (human, UniProt P23946 22-247)
T2 sequence (looked up): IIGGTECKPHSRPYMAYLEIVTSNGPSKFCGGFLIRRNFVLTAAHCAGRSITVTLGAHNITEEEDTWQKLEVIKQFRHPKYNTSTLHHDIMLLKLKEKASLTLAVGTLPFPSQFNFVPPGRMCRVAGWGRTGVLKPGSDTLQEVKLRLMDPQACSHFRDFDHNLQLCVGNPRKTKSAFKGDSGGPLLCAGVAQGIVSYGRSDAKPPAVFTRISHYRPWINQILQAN

[6] = target: T3, CathepsinG, from human neutrophils (human, UniProt P08311 21-244)
T3 sequence (looked up): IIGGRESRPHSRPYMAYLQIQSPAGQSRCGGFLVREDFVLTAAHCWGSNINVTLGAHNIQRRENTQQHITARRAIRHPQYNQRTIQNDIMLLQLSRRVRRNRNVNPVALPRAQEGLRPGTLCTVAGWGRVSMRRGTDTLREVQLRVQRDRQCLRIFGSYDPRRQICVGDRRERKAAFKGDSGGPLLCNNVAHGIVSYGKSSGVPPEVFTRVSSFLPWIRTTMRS

[7] = target: Trypsin, Iodination grade, from human pancreas (human, UniProt P07477 24-247)
[8] = target: Tryptase, from human lung (human, UniProt Q15661 31-275, limits assumed)
Sequence of Tryptase, from human lung (Q15661 31-275 limits assumed): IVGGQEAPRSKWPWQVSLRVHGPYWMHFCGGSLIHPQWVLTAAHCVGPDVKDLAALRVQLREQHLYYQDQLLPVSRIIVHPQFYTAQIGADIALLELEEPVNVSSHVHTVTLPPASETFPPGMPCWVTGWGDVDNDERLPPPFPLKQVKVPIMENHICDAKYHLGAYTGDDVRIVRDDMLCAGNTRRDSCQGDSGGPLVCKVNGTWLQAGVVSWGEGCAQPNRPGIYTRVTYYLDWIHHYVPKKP

Sequence of Chymotrypsin, from human pancreas (P17538 19-263): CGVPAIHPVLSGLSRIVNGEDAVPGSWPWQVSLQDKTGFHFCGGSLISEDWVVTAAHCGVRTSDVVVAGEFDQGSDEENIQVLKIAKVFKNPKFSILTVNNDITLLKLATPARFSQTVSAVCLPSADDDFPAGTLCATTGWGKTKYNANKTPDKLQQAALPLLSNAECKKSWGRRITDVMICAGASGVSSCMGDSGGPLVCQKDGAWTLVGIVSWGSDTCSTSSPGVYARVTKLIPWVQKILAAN

B1: Example 1 (peptide)
peptide: FCTKSEPPICT
HELM: PEPTIDE1{F.C.T.K.S.E.P.P.I.C.T.[dP].P}$PEPTIDE1,PEPTIDE1,2:R3-10:R3|PEPTIDE1,PEPTIDE1,1:R1-13:R2$$$V2.0
SMILES: CC[C@H](C)[C@@H]1NC(=O)[C@@H]2CCCN2C(=O)[C@@H]2CCCN2C(=O)[C@H](CCC(=O)O)NC(=O)[C@H](CO)NC(=O)[C@H](CCCCN)NC(=O)[C@H]([C@@H](C)O)NC(=O)[C@@H]2CSSC[C@H](NC1=O)C(=O)N[C@@H]([C@@H](C)O)C(=O)N1CCC[C@@H]1C(=O)N1CCC[C@H]1C(=O)N[C@@H](Cc1ccccc1)C(=O)N2
[1]
  % inhibition at 100 µM: 1.1%
[2]
  % inhibition at 100 µM: 7.8%
[3]
  % inhibition at 100 µM: 5.7%
[4]
  IC50: > 100000 nmol
[5]
  % inhibition at 100 µM: 5.7%
Chymase, from human skin
  % inhibition at 100 µM: 0%
[6]
  IC50: 86 nmol
[7]
  % inhibition at 100 µM: 92.6%
[8]
  % inhibition at 100 µM: 0%

B2: Example 2 (peptide)
peptide: FCTKSDPPICD
HELM: PEPTIDE1{F.C.T.K.S.D.P.P.I.C.D.[dP].P}$PEPTIDE1,PEPTIDE1,2:R3-10:R3|PEPTIDE1,PEPTIDE1,1:R1-13:R2$$$V2.0
SMILES: CC[C@H](C)[C@@H]1NC(=O)[C@@H]2CCCN2C(=O)[C@@H]2CCCN2C(=O)[C@H](CC(=O)O)NC(=O)[C@H](CO)NC(=O)[C@H](CCCCN)NC(=O)[C@H]([C@@H](C)O)NC(=O)[C@@H]2CSSC[C@H](NC1=O)C(=O)N[C@@H](CC(=O)O)C(=O)N1CCC[C@@H]1C(=O)N1CCC[C@H]1C(=O)N[C@@H](Cc1ccccc1)C(=O)N2
[1]
  % inhibition at 100 µM: 9.2%
[2]
  % inhibition at 100 µM: 2.9%
[3]
  % inhibition at 100 µM: 0.9%
[4]
  IC50: > 100000 nmol
[5]
  % inhibition at 100 µM: 5.3%
Chymase, from human skin
  % inhibition at 100 µM: 0%
[6]
  IC50: 84 nmol
[7]
  % inhibition at 100 µM: 92%
[8]
  % inhibition at 100 µM: 39.6%

## cyclo(FCTK[AlloThr]DPPICS[dP]P) (disulfide 2-10) [Example 24]
[1]
  % inhibition at 100 µM: 3.5%
[2]
  % inhibition at 100 µM: 1%
[3]
  % inhibition at 100 µM: 5.1%
[4]
  IC50: > 100000 nmol
[5]
  % inhibition at 100 µM: 30%
Chymase, from human skin
  % inhibition at 100 µM: 1.2%
[6]
  IC50: 71 nmol
[7]
  % inhibition at 100 µM: 97%
[8]
  % inhibition at 100 µM: 0%

B3: Example 26 (peptide)
peptide: YCTKSDPPICY
HELM: PEPTIDE1{Y.C.T.K.S.D.P.P.I.C.Y.[dP].P}$PEPTIDE1,PEPTIDE1,2:R3-10:R3|PEPTIDE1,PEPTIDE1,1:R1-13:R2$$$V2.0
SMILES: CC[C@H](C)[C@@H]1NC(=O)[C@@H]2CCCN2C(=O)[C@@H]2CCCN2C(=O)[C@H](CC(=O)O)NC(=O)[C@H](CO)NC(=O)[C@H](CCCCN)NC(=O)[C@H]([C@@H](C)O)NC(=O)[C@@H]2CSSC[C@H](NC1=O)C(=O)N[C@@H](Cc1ccc(O)cc1)C(=O)N1CCC[C@@H]1C(=O)N1CCC[C@H]1C(=O)N[C@@H](Cc1ccc(O)cc1)C(=O)N2
[1]
  % inhibition at 100 µM: 3%
[2]
  % inhibition at 100 µM: 2.2%
[3]
  % inhibition at 100 µM: 3.1%
[4]
  IC50: > 100000 nmol
[5]
  % inhibition at 100 µM: 6%
Chymase, from human skin
  % inhibition at 100 µM: 0%
[6]
  IC50: 49 nmol
[7]
  % inhibition at 100 µM: 84%
[8]
  % inhibition at 100 µM: 66.4%

B4: Example 28 (peptide)
peptide: XCTKSDPPICT
HELM: PEPTIDE1{[O=C([C@H](CCc1ccccc1)N[*:1])[*:2]].C.T.K.S.D.P.P.I.C.T.[dP].P}$PEPTIDE1,PEPTIDE1,2:R3-10:R3|PEPTIDE1,PEPTIDE1,1:R1-13:R2$$$V2.0
SMILES: CC[C@H](C)[C@@H]1NC(=O)[C@@H]2CCCN2C(=O)[C@@H]2CCCN2C(=O)[C@H](CC(=O)O)NC(=O)[C@H](CO)NC(=O)[C@H](CCCCN)NC(=O)[C@H]([C@@H](C)O)NC(=O)[C@@H]2CSSC[C@H](NC1=O)C(=O)N[C@@H]([C@@H](C)O)C(=O)N1CCC[C@@H]1C(=O)N1CCC[C@H]1C(=O)N[C@@H](CCc1ccccc1)C(=O)N2
[1]
  % inhibition at 100 µM: 12%
[2]
  % inhibition at 100 µM: 32%
[3]
  % inhibition at 100 µM: 1%
[4]
  IC50: > 100000 nmol
[5]
  % inhibition at 100 µM: 6%
Chymase, from human skin
  % inhibition at 100 µM: 0%
[6]
  IC50: 39 nmol
[7]
  % inhibition at 100 µM: 95%
[8]
  % inhibition at 100 µM: 0%

B5: Example 3 (peptide)
peptide: FCTKSDPPICN
HELM: PEPTIDE1{F.C.T.K.S.D.P.P.I.C.N.[dP].P}$PEPTIDE1,PEPTIDE1,2:R3-10:R3|PEPTIDE1,PEPTIDE1,1:R1-13:R2$$$V2.0
SMILES: CC[C@H](C)[C@@H]1NC(=O)[C@@H]2CCCN2C(=O)[C@@H]2CCCN2C(=O)[C@H](CC(=O)O)NC(=O)[C@H](CO)NC(=O)[C@H](CCCCN)NC(=O)[C@H]([C@@H](C)O)NC(=O)[C@@H]2CSSC[C@H](NC1=O)C(=O)N[C@@H](CC(N)=O)C(=O)N1CCC[C@@H]1C(=O)N1CCC[C@H]1C(=O)N[C@@H](Cc1ccccc1)C(=O)N2
[1]
  % inhibition at 100 µM: 0%
[2]
  % inhibition at 100 µM: 0%
[3]
  % inhibition at 100 µM: 4%
[4]
  IC50: > 100000 nmol
[5]
  % inhibition at 100 µM: 4%
Chymase, from human skin
  % inhibition at 100 µM: 1%
[6]
  IC50: 51 nmol
[7]
  % inhibition at 100 µM: 92%
[8]
  % inhibition at 100 µM: 68%

B6: Example 31 (peptide)
peptide: XCTKSDPPICN
HELM: PEPTIDE1{[Nc1ccc(C[C@H](N[*:1])C(=O)[*:2])cc1].C.T.K.S.D.P.P.I.C.N.[dP].P}$PEPTIDE1,PEPTIDE1,2:R3-10:R3|PEPTIDE1,PEPTIDE1,1:R1-13:R2$$$V2.0
SMILES: CC[C@H](C)[C@@H]1NC(=O)[C@@H]2CCCN2C(=O)[C@@H]2CCCN2C(=O)[C@H](CC(=O)O)NC(=O)[C@H](CO)NC(=O)[C@H](CCCCN)NC(=O)[C@H]([C@@H](C)O)NC(=O)[C@@H]2CSSC[C@H](NC1=O)C(=O)N[C@@H](CC(N)=O)C(=O)N1CCC[C@@H]1C(=O)N1CCC[C@H]1C(=O)N[C@@H](Cc1ccc(N)cc1)C(=O)N2
[1]
  % inhibition at 100 µM: 10%
[2]
  % inhibition at 100 µM: 15%
[3]
  % inhibition at 100 µM: 15%
[4]
  IC50: > 100000 nmol
[5]
  % inhibition at 100 µM: 8%
Chymase, from human skin
  % inhibition at 100 µM: 12%
[6]
  IC50: 34 nmol
[7]
  % inhibition at 100 µM: 98%
[8]
  % inhibition at 100 µM: 76%

B7: Example 38 (peptide)
peptide: XCTKSDPPICT
HELM: PEPTIDE1{[O=C([C@@H](N[*:1])C1CCCCC1)[*:2]].C.T.K.S.D.P.P.I.C.T.[dP].P}$PEPTIDE1,PEPTIDE1,2:R3-10:R3|PEPTIDE1,PEPTIDE1,1:R1-13:R2$$$V2.0
SMILES: CC[C@H](C)[C@@H]1NC(=O)[C@@H]2CCCN2C(=O)[C@@H]2CCCN2C(=O)[C@H](CC(=O)O)NC(=O)[C@H](CO)NC(=O)[C@H](CCCCN)NC(=O)[C@H]([C@@H](C)O)NC(=O)[C@@H]2CSSC[C@H](NC1=O)C(=O)N[C@@H]([C@@H](C)O)C(=O)N1CCC[C@@H]1C(=O)N1CCC[C@H]1C(=O)N[C@@H](C1CCCCC1)C(=O)N2
[1]
  % inhibition at 100 µM: 0%
[2]
  % inhibition at 100 µM: 4%
[3]
  % inhibition at 100 µM: 1%
[4]
  IC50: > 100000 nmol
[5]
  % inhibition at 100 µM: 0%
Chymase, from human skin
  % inhibition at 100 µM: 1%
[6]
  IC50: 31 nmol
[7]
  % inhibition at 100 µM: 96%
[8]
  % inhibition at 100 µM: 11%

B8: Example 39 (peptide)
peptide: XCTKSDPPICD
HELM: PEPTIDE1{[O=C([C@@H](N[*:1])C1CCCCC1)[*:2]].C.T.K.S.D.P.P.I.C.D.[dP].P}$PEPTIDE1,PEPTIDE1,2:R3-10:R3|PEPTIDE1,PEPTIDE1,1:R1-13:R2$$$V2.0
SMILES: CC[C@H](C)[C@@H]1NC(=O)[C@@H]2CCCN2C(=O)[C@@H]2CCCN2C(=O)[C@H](CC(=O)O)NC(=O)[C@H](CO)NC(=O)[C@H](CCCCN)NC(=O)[C@H]([C@@H](C)O)NC(=O)[C@@H]2CSSC[C@H](NC1=O)C(=O)N[C@@H](CC(=O)O)C(=O)N1CCC[C@@H]1C(=O)N1CCC[C@H]1C(=O)N[C@@H](C1CCCCC1)C(=O)N2
[1]
  % inhibition at 100 µM: 2%
[2]
  % inhibition at 100 µM: 7%
[3]
  % inhibition at 100 µM: 2%
[4]
  IC50: > 100000 nmol
[5]
  % inhibition at 100 µM: 0%
Chymase, from human skin
  % inhibition at 100 µM: 0%
[6]
  IC50: 38 nmol
[7]
  % inhibition at 100 µM: 94%
[8]
  % inhibition at 100 µM: 34%

## cyclo(ICTKSDPAICR[dP]P) (disulfide 2-10) [Example 14]
[1]
  % inhibition at 100 µM: 8.7%
[2]
  % inhibition at 100 µM: 0%
[3]
  % inhibition at 100 µM: 5.4%
[4]
  IC50: > 100000 nmol
[5]
  % inhibition at 100 µM: 6%
Chymase, from human skin
  % inhibition at 100 µM: 42.3%
[6]
  IC50: 52 nmol
[8]
  % inhibition at 100 µM: 84.2%
